Measured values taken from paper PMC4188090, “Crystallization and preliminary X-ray diffraction analyses of the redox-controlled complex of terminal oxygenase and ferredoxin components in the Rieske nonhaem iron oxygenase carbazole 1,9a-dioxygenase” (Acta Crystallographica. Section F, Structural Biology …, 2014).

B1: terminal oxygenase (Oxy) component of carbazole 1,9a-dioxygenase (CARDO) from Janthinobacterium sp. J3, reduced state (enzyme, UniProt Q84II6 1-384, looked up)
chain: MANVDEAILKRVKGWAPYVDAKLGFRNHWYPVMFSKEINEGEPKTLKLLGENLLVNRIDGKLYCLKDRCLHRGVQLSVKVECKTKSTITCWYHAWTYRWEDGVLCDILTNPTSAQIGRQKLKTYPVQEAKGCVFIYLGDGDPPPLARDTPPNFLDDDMEILGKNQIIKSNWRLAVENGFDPSHIYIHKDSILVKDNDLALPLGFAPGGDRKQQTRVVDDDVVGRKGVYDLIGEHGVPVFEGTIGGEVVREGAYGEKIVANDISIWLPGVLKVNPFPNPDMMQFEWYVPIDENTHYYFQTLGKPCANDEERKKYEQEFESKWKPMALEGFNNDDIWAREAMVDFYADDKGWVNEILFESDEAIVAWRKLASEHNQGIQTQAHVSG
notes: terminal oxygenase component (Oxy) of carbazole 1,9a-dioxygenase, Janthinobacterium sp; J3; histidine-tagged; Holds a Rieske-type [2Fe-2S] cluster (reduced in this experiment) and a nonhaem iron centre; Trimer in the crystal; Construct as in earlier work (Ashikawa et al., 2005; Matsuzawa et al., 2013); also called Oxyred; reduced Oxy; source: E. coli BL21(DE3), purified (metal-chelation …)
B2: ferredoxin (Fd) component of carbazole 1,9a-dioxygenase (CARDO) from Pseudomonas resinovorans CA10, oxidized state (natural protein)
chain: MNQIWLKVCAASDMQPGTIRRVNRVGAAPLAVYRVGDQFYATEDTCTHGIASLSEGTLDGDVIECPFHGGAFNVCTGMPASSPCTVPLGVFEVEVKEGEVYVAGEKK
notes: ferredoxin component (Fd) of carbazole 1,9a-dioxygenase, Pseudomonas resinovorans CA10; histidine-tagged; Holds a Rieske-type [2Fe-2S] cluster (oxidized in this experiment); Called a monomer in the crystal; Construct as in earlier work (Ashikawa et al., 2005; Matsuzawa et al., 2013); also called Fdox; oxidized Fd; source: E. coli BL21(DE3), purified (metal-chelation chromatography, gel filtration)

Tests used:
[1] = biological target: the molecule itself; test: crystal structure; Oxyred and Fdox mixed in a 1:3 molar ratio with 10% glycerol, anaerobic, hanging-drop vapour diffusion at 293 K, 0.1 M sodium cacodylate pH 5.7, 14% (w/v) PEG 3350; dissolved crystals checked by SDS-PAGE and anti-His Western blot; data to 2.25 A, molecular replacement with PDB 2de5 (preliminary)
[2] = biological target: B1; test: as above; settings: both partners purified

stoichiometry N [2] | Binder | stoichiometry N [1]
– | B1 | 3
2 molecules of the Fd monomer per one Oxy trimer | B2 | –
